The Kd is the constant that tells how readily two partners part at equilibrium. Usually koff stands for the first-order rate constant of dissociation. What is called kon is the rate constant with which the complex forms. A higher kon goes with faster complex formation.

The target of the assay is T1, His-tagged human PTK7 protein (human, UniProt Q13308 31-704).
T1 construct: Bought protein; also called hPTK7-His; not shown: His tag
T1 sequence: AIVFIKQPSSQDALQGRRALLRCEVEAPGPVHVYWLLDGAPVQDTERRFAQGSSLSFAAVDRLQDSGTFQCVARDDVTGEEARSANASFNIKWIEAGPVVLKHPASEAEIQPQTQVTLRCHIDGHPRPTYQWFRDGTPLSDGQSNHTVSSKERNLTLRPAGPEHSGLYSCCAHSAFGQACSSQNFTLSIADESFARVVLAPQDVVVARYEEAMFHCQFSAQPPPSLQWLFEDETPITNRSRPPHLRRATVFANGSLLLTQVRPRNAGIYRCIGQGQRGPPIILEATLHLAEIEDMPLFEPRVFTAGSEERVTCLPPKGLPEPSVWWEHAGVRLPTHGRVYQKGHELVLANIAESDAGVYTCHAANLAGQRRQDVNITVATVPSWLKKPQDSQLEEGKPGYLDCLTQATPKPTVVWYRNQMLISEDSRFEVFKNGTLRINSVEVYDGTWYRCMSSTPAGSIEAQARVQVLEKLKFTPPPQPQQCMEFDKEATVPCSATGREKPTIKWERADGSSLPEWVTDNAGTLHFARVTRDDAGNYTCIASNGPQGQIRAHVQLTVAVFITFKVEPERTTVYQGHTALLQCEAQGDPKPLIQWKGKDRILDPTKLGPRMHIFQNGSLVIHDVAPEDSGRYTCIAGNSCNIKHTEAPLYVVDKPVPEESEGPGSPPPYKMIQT
Description: SPR Biacore 8K, Ab on Protein A chip. The protocol: The affinity of the anti-PTK7/TROP2 bispecific antibodies to His-tagged human TROP2 protein (hTROP2-His, ACRO Biosystems Inc., Cat #: TR2-H5223), His-tagged […] monkey TROP2 protein (cTROP2-His, ACRO Biosystems Inc., Cat #: Cat: TR2-R52H3), His-tagged dog TROP2 protein (dTROP2-His, ACRO Biosystems Inc., Cat #: TR2-C52H4), hPTK7-His, cPTK7-His and dPTK7-His were measured by surface plasmon resonance (SPR) using Biacore™ (Biacore, INC, Piscataway N.J.) 8K biosensor equipped with pre-immobilized Protein A sensor chips.
For orientation: In SPR one partner is held on a chip, and binding of the other changes the refractive index at the surface.

B1: 3C4-18E9 (bispecific antibody, human IgG1, V domains shown)
VH 1: QVQLEQSRAEVKKPGESLRISCKGSGYSFTSYWISWVRQMPGKGLEWMGRIDPSDSYTNYNPSFQGHVTISADKSISTAYLQWSSLKASDTAMYYCARRDGSYFDFDYWGQGTLVTVSS
VH 2: QLQLQQSGPGLLKPSETLSLTCTVSGGSISSSYYFWGWIRQPPGKGLEWIGAIYYIGNTHYNPSLKSRVTISIDTSKNQFSLNLNSVTAADTAIYYCARYEDTWNWFDPWGQGTLVTVSS
VL: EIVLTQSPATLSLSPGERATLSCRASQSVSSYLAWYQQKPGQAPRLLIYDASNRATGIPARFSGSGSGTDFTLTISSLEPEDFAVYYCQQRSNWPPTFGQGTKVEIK
notes: which arm carries the knob is stated only for 3C4-6F7; also called anti-PTK7/TROP2 bispecific antibody 3C4-18E9
B1 registered an equilibrium dissociation constant (Kd) of 9.79 nM, a koff of 0.00125 s⁻¹ and a kon of 128000 M⁻¹ s⁻¹.

These data come from patent US20260250421A1 (BIOCYTOGEN PHARMACEUTICALS BEIJING, published 2026).
